Ends that are not written are not given here.
Assays:
[1] = test system: MYC4; assay: Split-ubiquitin assay, MYC4 as bait; assay type: cell-based, Arabidopsis thaliana; conditions: yeast, SD-AHLW growth
Method: (§1) The rapamycin-compatible yeast strain NMY51 TOR1-1 Δfpr1 ([35]) was transformed according to DUALhunter™ kit instructions (Dualsystems biotech). Briefly, overnight 2×YPAD cultures were diluted to OD600 = 0.2, and incubated at 30°C, 150 RPM for 4–6 h in 2×YPAD, before harvesting the cells by centrifugation at 700 g for 5 min. The cells were washed with H2O, then 0.1 M LiOAc, before resuspending in 0.1 M LiOAc with 15% glycerol. The competent cells were then aliquoted and stored at −80°C until transformation. For double transformation with bait and prey plasmids, competent cells were thawed on ice, and mixed with transformation mix (240 μl 50% PEG-3350, 35 μl 1 M LiOAc and 25 μl 2 mg/ml ssDNA per transformation) and 200 ng of each plasmid, before being exposed to a 42°C heat shock in a water bath for 45 min. The cells were then chilled on ice for a few minutes, sedimented by centrifugation (3000 g, 1 min), resuspended in sterile H2O, plated on SD-LW plates and grown at 30°C for 2–3 days.
(§2) For drop tests, cells from three individual colonies of each bait/prey combination were grown overnight in liquid SD-LW media. Next day, culture densities were normalized to OD600 = 0.05, dilution series (OD600 = 0.05, OD600 = 0.005, OD600 = 0.0005 and OD600 = 0.00005) were spotted on square plates (SD-LW, SD-AHLW and SD-AHLW+Rapa) and grown for 2 days at 30°C before taking pictures.
(§3) To identify interaction sites mediating specific MYB–MYC complex formation, we selected two TFs from each family. These were MYB28 and MYB29 from MYB subgroup 12, and two of their partner bHLH TFs, MYC3 and MYC4. To define the region mediating the interactions we applied a chemically inducible dimerization split-ubiquitin system ([35]). […] This is used as an in-built positive control for correct expression and functionality of the prey fusion protein and thereby reduces the incidence of false negatives.

[2] = test system: MYC3; assay: Split-ubiquitin assay, MYC3 as bait; assay type: cell-based, Arabidopsis thaliana; conditions: yeast, SD-AHLW growth
Method: as §1, §2, §3

Molecule	interaction with MYC4 (in words) [1]	interaction with MYC3 (in words) [2]
MYB29 (S175-L222): 47-residue fragment of MYB29 (S175-L222) (SKKRCFKRSSSTSKLLNKVAARASSMGTILGASIEGTLISSTPLSSCL; not fully specified; cysteine pairing not given here)	sufficient for the interaction	–
MYB32: MYB TF from subgroup 4	did not	did not
MYB113: MYB TF from subgroup 6 (protein, left off: NubG and FRB (from the vector pFRB), end not stated, kept) MGESPKGLRKGTWTTEEDILLRQCIDKYGEGKWHRVPLRTGLNRCRKSCRLRWLNYLKPSIKRGKLCSDEVDLVLRLHKLLGNRWSLIAGRLPGRTANDVKNYWNTHLSKKHDERCCKTKMINKNITSHPTSSAQKIDVLKPRPRSFSDKNSCNDVNILPKVDVVPLHLGLNNNYVCESSITCNKDEQKDKLININLLDGDNMWWESLLEADVLGPEATETAKGVTLPLDFEQIWARFDEETLELN	did not	did not
MYB29 DBD (residues M1-H126): DBD of MYB29 (residues M1-H126) (protein, left off: NubG and FRB (from the vector pFRB), end not stated, kept) MSRKPCCVGEGLKKGAWTAEEDKKLISYIHEHGEGGWRDIPQKAGLKRCGKSCRLRWANYLKPDIKRGEFSYEEEQIIIMLHASRGNKWSVIARHLPKRTDNEIKNYWNTHLKKLLIDKGIDPVTH	neither sufficient, nor necessary for the interaction	–
MYB51: MYB TF from subgroup 12, containing a MIM (protein, left off: NubG and FRB (from the vector pFRB), end not stated, kept, MYB TF from subgroup 12, containing a MIM) MVRTPCCKAELGLKKGAWTPEEDQKLLSYLNRHGEGGWRTLPEKAGLKRCGKSCRLRWANYLRPDIKRGEFTEDEERSIISLHALHGNKWSAIARGLPGRTDNEIKNYWNTHIKKRLIKKGIDPVTHKGITSGTDKSENLPEKQNVNLTTSDHDLDNDKAKKNNKNFGLSSASFLNKVANRFGKRINQSVLSEIIGSGGPLASTSHTTNTTTTSVSVDSESVKSTSSSFAPTSNLLCHGTVATTPVSSNFDVDGNVNLTCSSSTFSDSSVNNPLMYCDNFVGNNNVDDEDTIGFSTFLNDEDFMMLEESCVENTAFMKELTRFLHEDENDVVDVTPVYERQDLFDEIDNYFG	interacted with both MYC3 and MYC4	interacted with both MYC3 and MYC4
MYB29 mut: MYB29 with mutations to abolish the MIM: L190K, K192N and A194Y (protein, left off: NubG and FRB (from the vector pFRB), end not stated, kept, MYB29 with mutations to abolish the MIM: L190K, K192N and A194Y) MSRKPCCVGEGLKKGAWTAEEDKKLISYIHEHGEGGWRDIPQKAGLKRCGKSCRLRWANYLKPDIKRGEFSYEEEQIIIMLHASRGNKWSVIARHLPKRTDNEIKNYWNTHLKKLLIDKGIDPVTHKPLAYDSNPDEQSQSGSISPKSLPPSSSKNVPEITSSDETPKYDASLSSKKRCFKRSSSTSKLKNNVYARASSMGTILGASIEGTLISSTPLSSCLNDDFSETSQFQMEEFDPFYQSSEHIIDHMKEDISINNSEYDFSQFLEQFSNNEGEEADNTGGGYNQDLLMSDVSSTSVDEDEMMQNITGWSNYLLDHSDFNYDTSQDYDDKNFI	abolished interaction with MYC3 and MYC4	abolished interaction with MYC3 and MYC4
WT: MYB29 (AAs 120-222); MIM sequence - S TS KL LNK VA ARA SS - (protein, left off: NubG and FRB (from the vector pFRB), end not stated, kept) MSRKPCCVGEGLKKGAWTAEEDKKLISYIHEHGEGGWRDIPQKAGLKRCGKSCRLRWANYLKPDIKRGEFSYEEEQIIIMLHASRGNKWSVIARHLPKRTDNEIKNYWNTHLKKLLIDKGIDPVTHKPLAYDSNPDEQSQSGSISPKSLPPSSSKNVPEITSSDETPKYDASLSSKKRCFKRSSSTSKLLNKVAARASSMGTILGASIEGTLISSTPLSSCLNDDFSETSQFQMEEFDPFYQSSEHIIDHMKEDISINNSEYDFSQFLEQFSNNEGEEADNTGGGYNQDLLMSDVSSTSVDEDEMMQNITGWSNYLLDHSDFNYDTSQDYDDKNFI	interacted with both MYC3 and MYC4	interacted with both MYC3 and MYC4
MYB47: R2R3 MYB TF containing 165LLNKLA170 (protein, left off: NubG and FRB (from the vector pFRB), end not stated, kept, R2R3 MYB TF containing 165LLNKLA170) MGRTTWFDVDGMKKGEWTAEEDQKLGAYINEHGVCDWRSLPKRAGLQRCGKSCRLRWLNYLKPGIRRGKFTPQEEEEIIQLHAVLGNRWAAMAKKMQNRTDNDIKNHWNSCLKKRLSRKGIDPMTHEPIIKHLTVNTTNADCGNSSTTTSPSTTESSPSSGSSRLLNKLAAGISSRQHSLDRIKYILSNSIIESSDQAKEEEEKEEEEEERDSMMGQKIDGSEGEDIQIWGEEEVRRLMEIDAMDMYEMTSYDAVMYESSHILDHLF	we could confirm those interactions	we could confirm those interactions
L190F: mutated MYB29 (AAs 120-222); MIM sequence - S TS KL FNK VA ARA SS - (protein, left off: NubG and FRB (from the vector pFRB), end not stated, kept) GIDPVTHKPLAYDSNPDEQSQSGSISPKSLPPSSSKNVPEITSSDETPKYDASLSSKKRCFKRSSSTSKLFNKVAARASSMGTILGASIEGTLISSTPLSSCL	weakly interacting	–
N191L: mutated MYB29 (AAs 120-222); MIM sequence - S TS KL LLK VA ARA SS - (protein, left off: NubG and FRB (from the vector pFRB), end not stated, kept) GIDPVTHKPLAYDSNPDEQSQSGSISPKSLPPSSSKNVPEITSSDETPKYDASLSSKKRCFKRSSSTSKLLLKVAARASSMGTILGASIEGTLISSTPLSSCL	weakly interacting	–
N191Q: mutated MYB29 (AAs 120-222); MIM sequence - S TS KL LQK VA ARA SS - (protein, left off: NubG and FRB (from the vector pFRB), end not stated, kept) GIDPVTHKPLAYDSNPDEQSQSGSISPKSLPPSSSKNVPEITSSDETPKYDASLSSKKRCFKRSSSTSKLLQKVAARASSMGTILGASIEGTLISSTPLSSCL	weakly interacting	–
MYB21: MYB TF from subgroup 19 (protein, left off: NubG and FRB (from the vector pFRB), end not stated, kept) MEKRGGGSSGGSGSSAEAEVRKGPWTMEEDLILINYIANHGDGVWNSLAKSAGLKRTGKSCRLRWLNYLRPDVRRGNITPEEQLIIMELHAKWGNRWSKIAKHLPGRTDNEIKNFWRTRIQKYIKQSDVTTTSSVGSHHSSEINDQAASTSSHNVFCTQDQAMETYSPTPTSYQHTNMEFNYGNYSAAAVTATVDYPVPMTVDDQTGENYWGMDDIWSSMHLLNGN	not able to reproduce the interaction	not able to reproduce the interaction
MYB29 non-MYB region (G120-I336): non-MYB region of MYB29 (G120-I336) (protein, left off: NubG and FRB (from the vector pFRB), end not stated, kept) GIDPVTHKPLAYDSNPDEQSQSGSISPKSLPPSSSKNVPEITSSDETPKYDASLSSKKRCFKRSSSTSKLLNKVAARASSMGTILGASIEGTLISSTPLSSCLNDDFSETSQFQMEEFDPFYQSSEHIIDHMKEDISINNSEYDFSQFLEQFSNNEGEEADNTGGGYNQDLLMSDVSSTSVDEDEMMQNITGWSNYLLDHSDFNYDTSQDYDDKNFI	mediated by the non-MYB region	–

From paper PMC6765112, “Specificity of MYB interactions relies on motifs in ordered and disordered contexts” (Nucleic Acids Research, 2019)
